# T1: Xrs2 (Flag-tagged, recombinant) (S. cerevisiae, UniProt P33301 1-854)
# T1 sequence (looked up): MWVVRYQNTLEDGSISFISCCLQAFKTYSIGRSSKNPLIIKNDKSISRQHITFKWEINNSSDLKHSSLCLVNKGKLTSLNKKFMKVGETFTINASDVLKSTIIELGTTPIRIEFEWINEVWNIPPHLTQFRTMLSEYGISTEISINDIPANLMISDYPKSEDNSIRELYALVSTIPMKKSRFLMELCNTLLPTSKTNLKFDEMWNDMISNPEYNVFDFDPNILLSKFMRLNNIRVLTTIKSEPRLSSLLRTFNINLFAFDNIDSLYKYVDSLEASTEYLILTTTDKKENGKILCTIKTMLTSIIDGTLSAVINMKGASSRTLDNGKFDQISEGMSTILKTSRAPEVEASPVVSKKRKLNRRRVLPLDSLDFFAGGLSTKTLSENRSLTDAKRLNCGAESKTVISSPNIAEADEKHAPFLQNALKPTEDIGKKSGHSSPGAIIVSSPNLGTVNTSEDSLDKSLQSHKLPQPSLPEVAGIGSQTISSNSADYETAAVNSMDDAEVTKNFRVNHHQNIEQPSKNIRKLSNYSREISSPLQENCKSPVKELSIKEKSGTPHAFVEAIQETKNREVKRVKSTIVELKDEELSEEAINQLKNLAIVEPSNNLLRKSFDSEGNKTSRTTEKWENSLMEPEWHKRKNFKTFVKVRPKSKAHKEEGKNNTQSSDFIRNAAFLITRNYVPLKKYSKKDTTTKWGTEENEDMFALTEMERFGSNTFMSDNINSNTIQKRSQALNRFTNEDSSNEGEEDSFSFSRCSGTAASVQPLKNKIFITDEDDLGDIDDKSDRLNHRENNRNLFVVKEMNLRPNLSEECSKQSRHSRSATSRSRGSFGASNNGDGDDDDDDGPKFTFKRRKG
# T2: Rad50 (S. cerevisiae, UniProt P12753 1-1312)
# T2 sequence (looked up): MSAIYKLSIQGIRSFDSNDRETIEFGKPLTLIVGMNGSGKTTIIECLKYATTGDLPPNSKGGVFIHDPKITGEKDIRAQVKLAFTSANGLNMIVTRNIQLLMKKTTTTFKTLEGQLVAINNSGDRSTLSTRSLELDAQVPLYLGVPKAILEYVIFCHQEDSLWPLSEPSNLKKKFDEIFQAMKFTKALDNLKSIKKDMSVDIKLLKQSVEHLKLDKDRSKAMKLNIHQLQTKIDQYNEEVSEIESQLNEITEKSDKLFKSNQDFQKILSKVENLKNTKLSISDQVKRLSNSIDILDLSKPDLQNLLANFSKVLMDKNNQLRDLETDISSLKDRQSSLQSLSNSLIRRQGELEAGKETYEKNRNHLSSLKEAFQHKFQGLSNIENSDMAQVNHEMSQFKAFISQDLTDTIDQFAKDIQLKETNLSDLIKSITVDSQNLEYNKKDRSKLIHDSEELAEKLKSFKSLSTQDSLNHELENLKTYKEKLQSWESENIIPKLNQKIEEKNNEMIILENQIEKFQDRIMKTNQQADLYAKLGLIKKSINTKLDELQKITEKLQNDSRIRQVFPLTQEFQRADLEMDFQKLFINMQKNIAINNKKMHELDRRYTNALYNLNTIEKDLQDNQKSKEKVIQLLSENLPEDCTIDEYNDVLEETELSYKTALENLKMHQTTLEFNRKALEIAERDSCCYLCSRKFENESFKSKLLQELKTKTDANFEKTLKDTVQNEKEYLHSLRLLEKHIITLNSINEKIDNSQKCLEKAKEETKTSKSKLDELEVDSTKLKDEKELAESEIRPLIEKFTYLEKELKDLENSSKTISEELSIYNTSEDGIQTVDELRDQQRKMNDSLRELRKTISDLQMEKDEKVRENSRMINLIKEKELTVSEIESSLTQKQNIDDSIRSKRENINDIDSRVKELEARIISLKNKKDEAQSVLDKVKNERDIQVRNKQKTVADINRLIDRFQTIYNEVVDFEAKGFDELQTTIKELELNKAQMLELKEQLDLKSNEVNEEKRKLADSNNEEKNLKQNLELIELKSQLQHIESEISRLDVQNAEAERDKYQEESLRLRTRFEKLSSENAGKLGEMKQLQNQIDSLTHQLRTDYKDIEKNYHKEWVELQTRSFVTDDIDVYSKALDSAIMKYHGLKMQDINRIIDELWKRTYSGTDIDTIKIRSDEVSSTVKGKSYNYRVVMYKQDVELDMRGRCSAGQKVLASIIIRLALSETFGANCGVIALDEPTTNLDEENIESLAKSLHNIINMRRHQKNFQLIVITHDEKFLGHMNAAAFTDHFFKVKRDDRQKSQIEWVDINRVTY
# Assays:
# [1] = target: T1, Xrs2 (Flag-tagged, recombinant); experiment: pull-down
# Rad50 = target: T2, Rad50; experiment: pull-down
binding result [1],binding result (Rad50),Binder
binds,–,"His-tagged Mre11 (wild type) (natural protein, S. cerevisiae, UniProt P32829 1-692, looked up) MDYPDPDTIRILITTDNHVGYNENDPITGDDSWKTFHEVMMLAKNNNVDMVVQSGDLFHVNKPSKKSLYQVLKTLRLCCMGDKPCELELLSDPSQVFHYDEFTNVNYEDPNFNISIPVFGISGNHDDASGDSLLCPMDILHATGLINHFGKVIESDKIKVVPLLFQKGSTKLALYGLAAVRDERLFRTFKDGGVTFEVPTMREGEWFNLMCVHQNHTGHTNTAFLPEQFLPDFLDMVIWGHEHECIPNLVHNPIKNFDVLQPGSSVATSLCEAEAQPKYVFILDIKYGEAPKMTPIPLETIRTFKMKSISLQDVPHLRPHDKDATSKYLIEQVEEMIRDANEETKQKLADDGEGDMVAELPKPLIRLRVDYSAPSNTQSPIDYQVENPRRFSNRFVGRVANGNNVVQFYKKRSPVTRSKKSGINGTSISDRDVEKLFSESGGELEVQTLVNDLLNKMQLSLLPEVGLNEAVKKFVDKDEKTALKEFISHEISNEVGILSTNEEFLRTDDAEEMKALIKQVKRANSVRPTPPKENDETNFAFNGNGLDSFRSSNREVRTGSPDITQSHVDNESRITHISQAESSKPTSKPKRVRTATKKKIPAFSDSTVISDAENELGDNNDAQDDVDIDENDIIMVSTDEEDASYGLLNGRKTKTKTRPAASTKTASRRGKGRASRTPKTDILGSLLAKKRK"
binds,binds,"His-tagged Mre11-R522H (natural protein, S. cerevisiae, UniProt P32829 1-692, looked up) MDYPDPDTIRILITTDNHVGYNENDPITGDDSWKTFHEVMMLAKNNNVDMVVQSGDLFHVNKPSKKSLYQVLKTLRLCCMGDKPCELELLSDPSQVFHYDEFTNVNYEDPNFNISIPVFGISGNHDDASGDSLLCPMDILHATGLINHFGKVIESDKIKVVPLLFQKGSTKLALYGLAAVRDERLFRTFKDGGVTFEVPTMREGEWFNLMCVHQNHTGHTNTAFLPEQFLPDFLDMVIWGHEHECIPNLVHNPIKNFDVLQPGSSVATSLCEAEAQPKYVFILDIKYGEAPKMTPIPLETIRTFKMKSISLQDVPHLRPHDKDATSKYLIEQVEEMIRDANEETKQKLADDGEGDMVAELPKPLIRLRVDYSAPSNTQSPIDYQVENPRRFSNRFVGRVANGNNVVQFYKKRSPVTRSKKSGINGTSISDRDVEKLFSESGGELEVQTLVNDLLNKMQLSLLPEVGLNEAVKKFVDKDEKTALKEFISHEISNEVGILSTNEEFLRTDDAEEMKALIKQVKHANSVRPTPPKENDETNFAFNGNGLDSFRSSNREVRTGSPDITQSHVDNESRITHISQAESSKPTSKPKRVRTATKKKIPAFSDSTVISDAENELGDNNDAQDDVDIDENDIIMVSTDEEDASYGLLNGRKTKTKTRPAASTKTASRRGKGRASRTPKTDILGSLLAKKRK"

# Reference: PMC5888019 (Nucleic Acids Research, 2018)
